From patent US20190015518A1, “DRUG DELIVERY COMPOSITIONS AND METHODS” (priority 2016, published 2019)
Values joined by “and” are separate entries in the source; they are usually repeats but may differ in a detail not shown here. Equal entries are not always repeated.

Assays:
[1] = test system: A2058 (human melanoma) cells; assay: Anti-proliferative activity (Resazurin Blue, 72 hours); format: cell-based; details: mean ± S.E.M., cisplatin basis
Protocol: MDA-1986 (human head and neck squamous cell carcinoma), 4T1.2-neu (murine breast cancer cells), and A2058 (human melanoma) cells were maintained in Dulbecco's Modified Eagle Medium (DMEM, Corning, Manassas, Va.) with 4.5 g/L glucose, 4.5 g/L L-glutamine, and 10% fetal bovine serum in a humidified incubator at 37° C. and 5% CO2. Cells were seeded into 96-well plates (3,000 cells/well in 90 μL media) and allowed to attach overnight. […] Resazurin Blue (Acros Organics, Geel, Belgium) in PBS was added to each well (5-μM final concentration; 10-μL addition) and incubated at 37° C. for 4 hours. Fluorescence (λex 550 nm, λem 605 nm) was quantified with a SpectraMax Gemini XS plate-reader (Molecular Devices, Sunnyvale, Calif.). The relative growth of cells incubated with each compound concentration was normalized to vehicle-treated controls (100% proliferation). Data from at least three separate experiments performed in duplicate was analyzed using non-linear regression (GraphPad Prism 5.0) to generate IC50 values.

[2] = Viscosity reduction by excipients (rheometer); format: physicochemical
Protocol: The viscosity of 29 kDa HA (60 mg/mL), 33HA-Lys (33 kDa HA with linker, 8 mg/mL on HA basis), and 33HA-Lys-Pt (41.7 mg/mL on HA basis) with increasing concentration of mannitol (0, 0.1, 0.5 and 1 M) were measured using a rheometer at 37° C.
(§1) The solutions were incubated in the dark for 20 hours using a CLAY ADAMS® Brand Nutator. After 20 hours, the pH of the solutions were adjusted to pH 6.0 using 1N NaOH. A Brookfield DVIII Ultra Programmable Rheometer was used to measure the viscosity of three 500-μL samples of each solution. Measurements were taken for each at three different RPMs, where the torque ranged from 10-100%. Values for viscosity were not recorded until at least 30 seconds after the motor was started, after the torque readings were stabilized.
as §1, with “to pH 5.0 or 6.0 using” for “to pH 6.0 using”

[3] = test system: white blood cell DNA; assay: Pt-DNA adduct quantitation in white blood cell DNA; format: in vivo, rat; details: cisplatin i.v. 10 mg/kg; HA-Lys-Pt s.c. 10 mg/kg cisplatin basis; 10 mg/kg
Protocol: Whole blood was centrifuged (1500×g, 5 min., 4° C., no brake). Top layer (plasma) and middle layer (white blood cells) were transferred to new tubes. Plasma was frozen (−20° C.) until analysis. […] The white blood cell pellet was washed twice with cold PBS and re-suspended in 9 mL of white blood cell buffer (10-mM Tris, pH 7.4, 2.3% NaCl, 2-mM EDTA), and 900 μL of 1.1-M NH4HCO3, 900 μL of 10% SDS, and 75 μL of 2% Proteinase K were added and incubated at 42° C. overnight. Then, 3.3 mL of 5-M NaCl was added, samples shaken vigorously, and centrifuged twice (3200×g, 5 min, 4° C.), each time discarding the pellet. DNA was pelleted with 20 mL of ice-cold 100% ethanol and centrifuged (3200×g, 5 min, 4° C.); the DNA pellet was washed twice with 75% ethanol, re-suspended in water, and quantitated. DNA was digested in 1% HNO3 (800 μL total volume) overnight at 70° C. DNA samples were diluted 1:10 in 1% HNO3 and plasma samples were diluted 1:10,000 in 1% HNO3. Diluted samples were analyzed for Pt content using ICP-MS with a calibration curve from 1-1000 ppt.

## HA-cis-[Pt(NH3)2(N^α-Acetyl-L-Lysine)] [75HA-Lys-Pt]
[1]
  IC50: 69.8 ± 7 µM
[2]; 12 mM CaAc2, pH 5.0
  percent reduction of viscosity: 25.1-78.0%
[2]; 12 mM CaAc2, pH 6.0
  percent reduction of viscosity: 21.4-81.0%
[2]; 12 mM NaCl, pH 5.0
  percent reduction of viscosity: 36.6-83.2%
[2]; 12 mM calcium lactate, pH 5.0
  percent reduction of viscosity: 23.0-71.8%
[2]; 12 mM calcium lactate, pH 6.0
  percent reduction of viscosity: 24.3-80.9%
[2]; 12 mM sodium acetate and trehalose 15% wt, pH 5.0, two batches
  percent reduction of viscosity: 54.1% and 84.3%
[2]; 12 mM sodium acetate, pH 5.0
  percent reduction of viscosity: 14.5-89.2%
[2]; 12 mM sodium carbonate and trehalose 15% wt, pH 5.0
  percent reduction of viscosity: 48.5-99.0%
[2]; 12 mM sodium carbonate, pH 5.0
  percent reduction of viscosity: 60.6-99.2%
[2]; 12 mM sodium citrate and trehalose 15% wt, pH 5.0
  percent reduction of viscosity: 15.6-95.4%
[2]; 12 mM sodium citrate, pH 5.0
  percent reduction of viscosity: 38.4-97.2%
[2]; CaCl2-containing PBS buffer, pH 6.0, three batches
  percent reduction of viscosity: 55.2-88.6%
[2]; Sodium Chelex 100, pH 5.0, two batches
  percent reduction of viscosity: 82.0% and 91.7%
[2]; buffer-free CaCl2, pH 5.0, three batches
  percent reduction of viscosity: 32.1-76.6%
[2]; buffer-free CaCl2, pH 6.0, three batches
  percent reduction of viscosity: 26.6-77.0%
[3]
  Pt-DNA adduct AUC: 4730 pg Pt×h/μg DNA
